Test results published in patent US20240368253A1 (BIO TECHNE, published 2024).

B1: VTN62-292 T63G, V67N, F68P (ligand)
chain: VGRGDNPTMPEDEYTVYDDGEEKNNATVHEQVGGPSLTSDLQAQSKGNPEQTPVLKPEEEAPAPEVGASKPEGIDSRPETLHPGRPQPPAEEELCSGKPFDAFTDLKNGSLFAFRGQYCYELDEKAVRPGYPKLIRDVWGIEGPIDAAFTRINCQGKTYLFKGSQYWRFEDGVLDPDYPRNISDGFDGIPDNVDAALALPAHSYSGRERVYFFKGKQYWEYQFQHQPSQEEHHHHHH
notes: also called VN-3
B2: VTN62-292,D80Y (ligand)
chain: MVTRGDVFTMPEDEYTVYDYGEEKNNATVHEQVGGPSLTSDLQAQSKGNPEQTPVLKPEEEAPAPEVGASKPEGIDSRPETLHPGRPQPPAEEELCSGKPFDAFTDLKNGSLFAFRGQYCYELDEKAVRPGYPKLIRDVWGIEGPIDAAFTRINCQGKTYLFKGSQYWRFEDGVLDPDYPRNISDGFDGIPDNVDAALALPAHSYSGRERVYFFKGKQYWEYQFQHQPSQEEHHHHHH
notes: also called D80Y mutant

Experiments:
[1] = target: T1, alphaVBeta5 (αVβ5) integrin heterodimer (UniProt P06756 31-992; P18084 24-719); assay: ELISA; printed as ED50 (median effective dose)
T1 construct: Heterodimer used in ELISA; source and construct not described; also called aVB5
T1 sequence (P06756 31-992, chain 1 of 2): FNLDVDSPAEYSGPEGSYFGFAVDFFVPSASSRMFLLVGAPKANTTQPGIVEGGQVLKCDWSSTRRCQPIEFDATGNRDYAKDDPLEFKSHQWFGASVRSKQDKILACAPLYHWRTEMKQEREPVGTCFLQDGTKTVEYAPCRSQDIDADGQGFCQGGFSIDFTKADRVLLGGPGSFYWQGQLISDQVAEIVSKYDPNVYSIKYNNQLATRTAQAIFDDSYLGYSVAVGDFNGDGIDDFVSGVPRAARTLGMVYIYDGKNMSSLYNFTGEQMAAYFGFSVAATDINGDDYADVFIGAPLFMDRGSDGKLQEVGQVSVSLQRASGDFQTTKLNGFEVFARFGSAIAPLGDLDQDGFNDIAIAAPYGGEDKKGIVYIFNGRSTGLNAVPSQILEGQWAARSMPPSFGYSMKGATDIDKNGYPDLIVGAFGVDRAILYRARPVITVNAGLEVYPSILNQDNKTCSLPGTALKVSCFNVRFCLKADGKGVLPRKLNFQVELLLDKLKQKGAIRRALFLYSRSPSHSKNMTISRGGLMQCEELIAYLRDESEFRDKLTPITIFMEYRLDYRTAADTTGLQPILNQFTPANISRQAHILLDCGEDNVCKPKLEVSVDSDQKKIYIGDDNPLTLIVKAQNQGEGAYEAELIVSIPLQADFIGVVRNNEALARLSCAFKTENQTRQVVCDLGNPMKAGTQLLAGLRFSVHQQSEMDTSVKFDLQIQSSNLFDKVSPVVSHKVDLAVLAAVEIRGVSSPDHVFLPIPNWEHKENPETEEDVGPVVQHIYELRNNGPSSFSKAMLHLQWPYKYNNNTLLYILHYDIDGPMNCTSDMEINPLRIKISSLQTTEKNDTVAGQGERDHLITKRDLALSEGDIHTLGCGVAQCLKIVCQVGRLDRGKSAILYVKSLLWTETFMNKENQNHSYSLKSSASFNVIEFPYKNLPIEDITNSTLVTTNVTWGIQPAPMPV
T1 sequence (P18084 24-719, chain 2 of 2): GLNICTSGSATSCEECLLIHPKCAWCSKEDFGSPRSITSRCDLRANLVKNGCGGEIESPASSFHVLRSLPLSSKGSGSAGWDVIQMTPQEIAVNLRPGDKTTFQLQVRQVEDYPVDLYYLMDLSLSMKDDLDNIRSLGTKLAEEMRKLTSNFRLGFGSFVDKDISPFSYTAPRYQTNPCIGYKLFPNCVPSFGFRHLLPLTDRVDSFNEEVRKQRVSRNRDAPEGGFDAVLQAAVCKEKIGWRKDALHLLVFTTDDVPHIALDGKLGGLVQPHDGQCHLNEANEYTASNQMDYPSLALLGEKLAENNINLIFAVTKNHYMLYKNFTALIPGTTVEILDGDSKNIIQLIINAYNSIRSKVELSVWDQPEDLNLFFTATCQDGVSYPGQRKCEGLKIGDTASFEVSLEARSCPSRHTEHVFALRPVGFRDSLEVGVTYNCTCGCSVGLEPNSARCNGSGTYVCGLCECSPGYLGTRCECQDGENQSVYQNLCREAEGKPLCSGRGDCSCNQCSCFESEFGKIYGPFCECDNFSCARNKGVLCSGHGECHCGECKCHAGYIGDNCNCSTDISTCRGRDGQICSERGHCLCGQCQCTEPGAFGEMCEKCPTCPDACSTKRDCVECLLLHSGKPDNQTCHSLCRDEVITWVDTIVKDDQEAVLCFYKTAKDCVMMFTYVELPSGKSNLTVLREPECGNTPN

[2] = target: T1, alphaVBeta5 (αVβ5) integrin heterodimer; assay: ELISA, average of 5 experiments normalized to VTN-FL
[3] = target: T1, alphaVBeta5 (αVβ5) integrin heterodimer; assay: ELISA

Binder	EC50 [1] [µg/mL]	fold increase in ED50 [2] [fold]	fold increase in binding affinity [3] [fold]
B1	0.523	> 7	–
B2	–	–	~2
